Measurements taken from publication doi:10.1101/2023.06.06.543845 (bioRxiv, 2023).

Assays:
[1] = molecular target: the molecule itself; test: crystal structure
[2] = molecular target: T1, Mycobacterium tuberculosis NrdI (Mycobacterium tuberculosis, UniProt P9WIZ3); test: crystal structure
T1 sequence: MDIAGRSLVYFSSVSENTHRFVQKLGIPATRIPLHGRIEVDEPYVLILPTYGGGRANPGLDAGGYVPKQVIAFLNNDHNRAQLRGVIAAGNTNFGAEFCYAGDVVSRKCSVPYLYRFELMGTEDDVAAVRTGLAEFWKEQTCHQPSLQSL

B1: Mycobacterium tuberculosis NrdF2 (R2 subunit of the Class Ib ribonucleotide reductase) (enzyme)
chain: TGNAKLIDRVSAINWNRLQDEKDAEVWDRLTGNFWLPEKVPVSNDIPSWGTLTAGEKQLTMRVFTGLTMLDTIQGTVGAVSLIPDALTPHEEAVLTNIAFMESVHAKSYSQIFSTLCSTAEIDDAFRWSEENRNLQRKAEIVLQYYRGDEPLKRKVASTLLESFLFYSGFYLPMYWSSRAKLTNTADMIRLIIRDEAVHGYYIGYKFQRGLALVDDVTRAELKDYTYELLFELYDNEVEYTQDLYDEVGLTEDVKKFLRYNANKALMNLGYEALFPRDETDVNPAILSALSPNADENHDFFSGSGSSYVIGKAVVTEDDDWDF
stoichiometry N [1]: 2
stoichiometry N [2]: 2 NrdF2 per NrdI
